Experimental data published in patent publication EP4491630A1, “T-CELL RECEPTOR FOR ACUTE MYELOID LEUKEMIA (AML)” (Universitetet I Oslo, priority 2023, dated 2025).
Ends that are not written are not given here.

Key:
[1] = target: HLA-A2 presenting the cognate NY-ESO1 peptide (human) (UniProt P78358); experiment: cell-based or functional assay
TCR^FLT3D/Y cells = conditions: 28 candidate 9mers from the human proteome pulsed on K562 cells
Experimental: TCR-transduced T cells were co-cultured with cell lines or primary patient tumor cells at an effector:target cell ratio of 1:2 (100,000:200,000 cells/well) and reactivity was investigated by measuring CD137 upregulation or release of IFN-γ. […] Cells were placed in round or flat bottom 96-well plates and after 18-20 h of co-incubation centrifuged at 700 g for 2 min. Supernatants were harvested for measurement of IFN-γ by ELISA, while cells were washed and stained with anti-CD137. In some experiments, transduced T cells were labeled with 0.75 µM CTV to distinguish them from target cells. Reagents for IFN-γ ELISA were acquired from BD Pharmingen or R&D Systems: mouse anti-human IFN-γ capture antibody (NIB42), Biotin Mouse Anti-Human IFN-γ detection antibody (4S.B3), streptavidin-HRP, stabilized tetramethylbenzidine and hydrogen peroxide as substrate solutions, sulfuric acid as stop solution, and recombinant human IFN-γ protein as standard. The assay was performed according to manufacturer's instructions.

[2] = target: T1, MED1 peptide on HLA-A*02:01 (human); experiment: cytokine release
T1 peptide: YITSDMFYV

[3] = target: T2, PRADC1 peptide on HLA-A*02:01 (human); experiment: cytokine release
T2 peptide: AVDNDSFYV

[4] = target: T3, LZTR1 peptide on HLA-A*02:01 (human); experiment: cytokine release
T3 peptide: AVISDAMYI

[5] = target: T4, FLT3 wild type peptide on HLA-A*02:01 (human); experiment: multimer staining
T4 peptide: DIMSDSNYV

[6] = target: T5, FLT3 D835Y peptide on HLA-A*02:01 (human); experiment: CD137 upregulation; transduced T cells of 4 donors against HLA-A2-transduced K562 pulsed with titrated peptide; full-length, on cells
T5 peptide: YIMSDSNYV

NY-ESO1-specific TCR 1G4
T cell activation by peptide-pulsed target cells, EC50 [1]: 5.5 nM

YITSDMFYV [peptide 12]
activation of TCR^FLT3D/Y cells (IFN-γ production) (TCR^FLT3D/Y cells): activated

AVISDAMYI [peptide 11]
activation of TCR^FLT3D/Y cells (IFN-γ production) (TCR^FLT3D/Y cells): activated

AVDNDSFYV [peptide 15]
activation of TCR^FLT3D/Y cells (IFN-γ production) (TCR^FLT3D/Y cells): activated

B1: TCR^FLT3D/Y (TCR, V domains shown)
Valpha: ELKVEQNPLFLSMQEGKNYTIYCNYSTTSDRLYWYRQDPGKSLESLFVLLSNGAVKQEGRLMASLDTKARLSTLHITAAVHDLSATYFCAVVGGSQGNLIFGKGTKLSVKP
Vbeta: DVKVTQSSRYLVKRTGEKVFLECVQDMDHENMFWYRQDPGLGLRLIYFSYDVKMKEKGDIPEGYSVSREKKERFSLILESASTNQTSMYLCASSLSPGGGYGYTFGSGTRLTVV
binding result [2]: recognises | binding result [3]: recognises | binding result [4]: recognises | binding result [5]: no recognition | EC50 of peptide [6]: 0.081 nM
